In US20120278951A1 (AGRESEARCH, published 2012):

Experiments:
[1] = target: the molecule itself; experiment: self-association (dimer) seen by SDS-PAGE/immunoblot; almost completely disrupted by SDS plus urea
[2] = target: the molecule itself; experiment: self-association seen by SDS and SDS-UREA PAGE/immunoblot; on artificial oil bodies with GSSG also trimeric, tetrameric and likely pentameric disulfide cross-linked oligomers
[3] = target: the molecule itself; experiment: disulfide cross-linked oligomers seen by non-reducing SDS-PAGE/immunoblot of artificial oil bodies
[4] = target: the molecule itself; experiment: self-association / disulfide cross-linking seen by SDS and SDS-UREA PAGE/immunoblot of inclusion bodies and artificial oil bodies

B1: Oleosin disulfide 0,0 (sesame seed oleosin without engineered cysteines), E. coli expressed from pET29b (other)
chain: MKETAAAKFERQHMDSPDLGTLVPRGSMAEHYGQQQQTRAPHLQLQPRAQRVVKAATAVTAGGSLLVLSGLTLAGTVIALTIATPLLVIFSPVLVPAVITIFLLGAGFLASGGFGVAALSVLSWIYRYLTGKHPPGADQLESAKTKLASKAREMKDRAEQFSQQPVPWLISDPNSSSVDKLAAALEHHHHHHH
notes: Purified from E. coli inclusion bodies; also called Ole-0-0; Oleosin-0-0
- binding result [1]: binds

B2: Oleosin disulfide 1,1 (sesame seed oleosin with one engineered cysteine in each hydrophilic arm), E. coli expressed from pET29b (other)
chain: MKETAAAKFERQHMDSPDLGTLVPRGSMACHYGQQQQTRAPHLQLQPRAQRVVKAATAVTAGGSLLVLSGLTLAGTVIALTIATPLLVIFSPVLVPAVITIFLLGAGFLASGGFGVAALSVLSWIYRYLTGKHPPGADQLESAKTKLASKAREMKDRAEQFSCQPVPWLEHHHHHH
notes: also called Ole-1-1; Oleosin-1-1
- binding result [2]: binds

B3: Oleosin disulfide 1,3 (sesame seed oleosin with one N-terminal and three C-terminal engineered cysteines), E. coli expressed from pET29b (other)
chain: MKETAAAKFERQHMDSPDLGTLVPRGSMACHYGQQQQTRAPHLQLQPRAQRVVKAATAVTAGGSLLVLSGLTLAGTVIALTIATPLLVIFSPVLVPAVITIFLLGAGFLASGGFGVAALSVLSWIYRYLTGKHPPGADCLESAKTKLASCAREMKDRAEQFSCQPVPWLEHHHHHH
notes: also called Ole-1-3; Oleosin-1-3
- binding result [3]: binds

B4: Oleosin disulfide 3,3 (sesame seed oleosin with three engineered cysteines in each hydrophilic arm), E. coli expressed from pET29b (other)
chain: MKETAAAKFERQHMDSPDLGTLVPRGSMACHYGQQQQTCAPHLQLQPRACRVVKAATAVTAGGSLLVLSGLTLAGTVIALTIATPLLVIFSPVLVPAVITIFLLGAGFLASGGFGVAALSVLSWIYRYLTGKHPPGADCLESAKTKLASCAREMKDRAEQFSCQPVPWLEHHHHHH
notes: also called Ole-3-3; Oleosin-3-3
- binding result [4]: binds

B5: Oleosin disulfide 3,1 (sesame seed oleosin with three N-terminal and one C-terminal engineered cysteines), E. coli expressed from pET29b (other)
chain: MKETAAAKFERQHMDSPDLGTLVPRGSMACHYGQQQQTCAPHLQLQPRACRVVKAATAVTAGGSLLVLSGLTLAGTVIALTIATPLLVIFSPVLVPAVITIFLLGAGFLASGGFGVAALSVLSWIYRYLTGKHPPGADQLESAKTKLASKAREMKDRAEQFSCQPVPWLEHHHHHH
notes: also called Ole-3-1; Oleosin-3-1
- binding result [3]: binds
